In article PMC3418312:

Target: GST fused to the OCA2 N-terminal cytoplasmic domain, AA23 variant harboring the P99S mutation (human) (UniProt Q04671)
Experiment: pull-down

Sequence of UniProt Q04671 (Q04671 1-173 P99S): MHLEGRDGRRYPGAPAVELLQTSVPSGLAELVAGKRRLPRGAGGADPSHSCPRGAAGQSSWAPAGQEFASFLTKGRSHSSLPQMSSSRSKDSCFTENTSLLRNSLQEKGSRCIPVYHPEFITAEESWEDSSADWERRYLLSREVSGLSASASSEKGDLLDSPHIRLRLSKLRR

Q: With “AP-3 complex from MNT-1 human melanoma cell lysate (from UniProt O14617 1-1153; O00203 1-1094; Q92572 1-193)” as the substance, how does the percent bound relative to AA23 (% relative to AA23) read?
A: 30.1
